{"source": "IntAct's records for PubMed 20863830", "parents": {"B1": {"name": "Phospholipid-transporting ATPase ABCA3 (Homo sapiens), Q99758 (parent)", "chain": "MAVLRQLALLLWKNYTLQKRKVLVTVLELFLPLLFSGILIWLRLKIQSENVPNATIYPGQSIQELPLFFTFPPPGDTWELAYIPSHSDAAKTVTETVRRALVINMRVRGFPSEKDFEDYIRYDNCSSSVLAAVVFEHPFNHSKEPLPLAVKYHLRFSYTRRNYMWTQTGSFFLKETEGWHTTSLFPLFPNPGPREPTSPDGGEPGYIREGFLAVQHAVDRAIMEYHADAATRQLFQRLTVTIKRFPYPPFIADPFLVAIQYQLPLLLLLSFTYTALTIARAVVQEKERRLKEYMRMMGLSSWLHWSAWFLLFFLFLLIAASFMTLLFCVKVKPNVAVLSRSDPSLVLAFLLCFAISTISFSFMVSTFFSKANMAAAFGGFLYFFTYIPYFFVAPRYNWMTLSQKLCSCLLSNVAMAMGAQLIGKFEAKGMGIQWRDLLSPVNVDDDFCFGQVLGMLLLDSVLYGLVTWYMEAVFPGQFGVPQPWYFFIMPSYWCGKPRAVAGKEEEDSDPEKALRNEYFEAEPEDLVAGIKIKHLSKVFRVGNKDRAAVRDLNLNLYEGQITVLLGHNGAGKTTTLSMLTGLFPPTSGRAYISGYEISQDMVQIRKSLGLCPQHDILFDNLTVAEHLYFYAQLKGLSRQKCPEEVKQMLHIIGLEDKWNSRSRFLSGGMRRKLSIGIALIAGSKVLILDEPTSGMDAISRRAIWDLLQRQKSDRTIVLTTHFMDEADLLGDRIAIMAKGELQCCGSSLFLKQKYGAGYHMTLVKEPHCNPEDISQLVHHHVPNATLESSAGAELSFILPRESTHRFEGLFAKLEKKQKELGIASFGASITTMEEVFLRVGKLVDSSMDIQAIQLPALQYQHERRASDWAVDSNLCGAMDPSDGIGALIEEERTAVKLNTGLALHCQQFWAMFLKKAAYSWREWKMVAAQVLVPLTCVTLALLAINYSSELFDDPMLRLTLGEYGRTVVPFSVPGTSQLGQQLSEHLKDALQAEGQEPREVLGDLEEFLIFRASVEGGGFNERCLVAASFRDVGERTVVNALFNNQAYHSPATALAVVDNLLFKLLCGPHASIVVSNFPQPRSALQAAKDQFNEGRKGFDIALNLLFAMAFLASTFSILAVSERAVQAKHVQFVSGVHVASFWLSALLWDLISFLIPSLLLLVVFKAFDVRAFTRDGHMADTLLLLLLYGWAIIPLMYLMNFFFLGAATAYTRLTIFNILSGIATFLMVTIMRIPAVKLEELSKTLDHVFLVLPNHCLGMAVSSFYENYETRRYCTSSEVAAHYCKKYNIQYQENFYAWSAPGVGRFVASMAASGCAYLILLFLIETNLLQRLRGILCALRRRRTLTELYTRMPVLPEDQDVADERTRILAPSPDSLLHTPLIIKELSKVYEQRVPLLAVDRLSLAVQKGECFGLLGFNGAGKTTTFKMLTGEESLTSGDAFVGGHRISSDVGKVRQRIGYCPQFDALLDHMTGREMLVMYARLRGIPERHIGACVENTLRGLLLEPHANKLVRTYSGGNKRKLSTGIALIGEPAVIFLDEPSTGMDPVARRLLWDTVARARESGKAIIITSHSMEECEALCTRLAIMVQGQFKCLGSPQHLKSKFGSGYSLRAKVQSEGQQEALEEFKAFVDLTFPGSVLEDEHQGMVHYHLPGRDLSWAKVFGILEKAKEKYGVDDYSVSQISLEQVFLSFAHLQPPTAEEGR", "partner": "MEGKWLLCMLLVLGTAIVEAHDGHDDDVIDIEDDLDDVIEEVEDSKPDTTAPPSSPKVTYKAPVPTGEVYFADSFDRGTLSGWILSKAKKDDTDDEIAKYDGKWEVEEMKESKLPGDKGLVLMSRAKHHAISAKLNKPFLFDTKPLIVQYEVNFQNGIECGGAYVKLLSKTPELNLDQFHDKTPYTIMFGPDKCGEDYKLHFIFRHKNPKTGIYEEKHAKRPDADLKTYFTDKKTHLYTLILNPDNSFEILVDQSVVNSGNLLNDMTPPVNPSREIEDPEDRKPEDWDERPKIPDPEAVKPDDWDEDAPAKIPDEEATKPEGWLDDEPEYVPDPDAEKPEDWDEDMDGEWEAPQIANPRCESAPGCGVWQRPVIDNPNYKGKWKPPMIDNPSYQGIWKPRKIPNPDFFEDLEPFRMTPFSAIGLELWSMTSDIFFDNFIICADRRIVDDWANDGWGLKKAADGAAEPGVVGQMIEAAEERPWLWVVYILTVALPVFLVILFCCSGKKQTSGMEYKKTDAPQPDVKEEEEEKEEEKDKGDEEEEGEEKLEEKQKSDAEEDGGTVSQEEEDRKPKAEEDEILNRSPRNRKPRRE"}, "B2": {"name": "Phospholipid-transporting ATPase ABCA3 (Homo sapiens), Q99758 (parent)", "chain": "B1 chain", "partner": "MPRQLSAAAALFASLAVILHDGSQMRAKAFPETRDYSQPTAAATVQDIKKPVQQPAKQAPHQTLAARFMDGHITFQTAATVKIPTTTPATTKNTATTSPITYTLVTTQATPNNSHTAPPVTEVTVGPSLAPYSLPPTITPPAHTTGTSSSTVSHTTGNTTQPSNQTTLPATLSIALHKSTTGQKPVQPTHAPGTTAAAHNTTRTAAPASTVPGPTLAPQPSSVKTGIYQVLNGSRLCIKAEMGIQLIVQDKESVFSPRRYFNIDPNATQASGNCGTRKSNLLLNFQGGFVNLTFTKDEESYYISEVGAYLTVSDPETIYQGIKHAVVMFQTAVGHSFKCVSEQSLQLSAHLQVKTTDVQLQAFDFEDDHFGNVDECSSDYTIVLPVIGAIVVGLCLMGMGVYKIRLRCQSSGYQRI"}}}
{"variants_of": "B1", "conditions": "with calx_human CANX"}
{"variant": "Q215K", "effect of a mutation on the interaction": "increasing interaction"}
{"variants_of": "B2", "conditions": "with lamp3_human LAMP3, Q9UQV4"}
{"variant": "Q215K", "effect of a mutation on the interaction": "disrupting interaction"}
